Data as given in publication PMC7887213 (Nature Communications, 2021).

Columns and labels:
Conditions in all cases: both partners purified
[1] = molecular target: T1, NPNA2 peptide (Ac-[residues removed]-NH2) (Plasmodium falciparum (synthetic CSP …); assay: crystal structure; Fab at 10 mg/ml mixed with peptide at 1:5 molar ratio of Fab to peptide; sitting drop vapor diffusion
T1 construct: source: synthetic peptide, bought: Innopep Inc

[2] = molecular target: T2, NPNA3 peptide (Plasmodium falciparum (synthetic CSP …)); assay: as above
T2 construct: source: synthetic peptide, bought: Innopep Inc

[3] = molecular target: T3, NPNA4 peptide (Ac-[residues removed]-NH2) (Plasmodium falciparum (synthetic CSP …); assay: ITC; peptide in the syringe, Fab (~10 uM) in the cell; DPBS; 25 C; single-site binding model; triplicate; apparent affinity
T3 construct: source: synthetic peptide, bought: Innopep Inc

[4] = molecular target: T4, NPNA6 peptide (Ac-[residues removed]-NH2) (Plasmodium falciparum (synthetic CSP …); assay: as above
T4 construct: source: synthetic peptide, bought: Innopep Inc

Binder	binding result [1]	binding result [2]	Kd [3]	Kd [4]
Fab395 with elbow mutations in the heavy chain (crystallised form) (Fab, V domains shown, source: ExpiCHO cells, purified (HiTrap Protein G, SEC)) VH: QEQLVESGGGVVQPGRSLRLSCAAASEFCFSCYGMHWVRQAPGKGLEWVAVIWHDGSNQHFADSVKGRFTISRDNSKNIMYLQMNSLRAEDTAVYYCASATRYDILTGAFDYWGQGTLVTVVS VL: DIQMTQSPSTLSASVGDRVTITCRASQSISTWLAWYQQKPGKAPKLLIYKASSLESGVPSRFSGSGSGTEFTLTISSLQPDDFATYYCQQYSRYWTFGQGTKVEIK	binds			
Fab399 (Fab, V domains shown, also called mAb399; source: ExpiCHO cells, purified (HiTrap Protein G, SEC)) VH: EVQLVESGGGLVQPGRSLRLSCTTSGFTFGDYAMSWFRQAPGKGLEWVGFIRSKGFGGTAEYAAFVKGRFTISRDDSRSIAYLQMTSLKPEDTAVYYCSRVGVVIATAVYWGQGTLVTVSS VL: DILMTQTPLSLSVTPGQPASISCKSSQSLLDNDGKTYLYWYLQKPGQSPQLLIYEVSNRFSGVPERFSGSGSGTDFTLKIRRVEAEDVGVYYCMQRIDLPWTFGQGTKVEIK		binds	5.92 µM	0.094 µM
Fab366 with elbow mutations in the heavy chain (crystallised form) (Fab, V domains shown, source: ExpiCHO cells, purified (HiTrap Protein G, SEC)) VH: QVQLVQSGAEVKKPGASARVSCKASGYTLTDFYLHWVRQAPGQGLEWMGWLNPHSGGTNYAQKFLGRVSMTRDTSISTAYMELNKLISDDTAVYFCVRSDQEALRGAFDIWGQGTMVFVVS VL: DIQMTQSPSSLSASVGDTVTITCRASQSINDYLNWYQQKPGKAPKLLIYATSSLHSGVPSRFSGSGFGTDFTLTISSLQPEDSATYLCQQSHSLWTFGQGTKVEVK		binds		
